Results published in patent US20130217572A1, “SPECIFIC DELIVERY OF AGROCHEMICALS” (VRIJE UNIVERSITEIT BRUSSEL, priority 2010, published 2013).

What was measured:
potato lectin (Sigma) [1] = target: T1, potato lectin (Sigma) (potato, UniProt Q9S8M0 23-323); test: microcapsule retention; G: amine capsules, BS3 one-step, 1 ug VHH/cm2; potato lectin coat 100 ug/ml; 10% coverage
T1 construct: Bought glycoprotein, coated on ELISA plates
T1 sequence (looked up): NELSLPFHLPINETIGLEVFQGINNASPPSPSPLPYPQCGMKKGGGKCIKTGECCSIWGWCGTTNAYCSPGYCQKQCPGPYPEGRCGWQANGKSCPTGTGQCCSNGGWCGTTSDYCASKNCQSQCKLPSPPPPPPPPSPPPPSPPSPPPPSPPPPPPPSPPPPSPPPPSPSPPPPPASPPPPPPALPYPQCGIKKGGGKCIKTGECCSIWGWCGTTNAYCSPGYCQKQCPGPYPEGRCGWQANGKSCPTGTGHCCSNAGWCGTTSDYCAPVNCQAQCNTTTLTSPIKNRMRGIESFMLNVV

potato lectin (Sigma) [2] = target: T1, potato lectin (Sigma); test: microcapsule retention; D: carboxyl capsules, EDC/Sulfo-NHS, 0.1 ug VHH/cm2; potato lectin coat 100 ug/ml; 10% coverage
potato lectin (Sigma) [3] = target: T1, potato lectin (Sigma); test: microcapsule retention; L: amine capsules, BS3 two-step, 0.1 ug VHH/cm2; potato lectin coat 1 ug/ml; 10% coverage
unrelated antigens [4] = test: VHH-coupled lambda-cyhalothrin microcapsules retained on wells coated with unrelated antigen; 100% surface coverage
unrelated antigens [5] = test: VHH-coupled Uvitex OB microcapsules retained on wells coated with unrelated antigen; 20% surface coverage
gum arabic = test: VHH binding to gum arabic in ELISA; parameters: species or system acacia tree
Description: Titration of VHH antibody fragments was performed on ELISA plates (Maxisorp, Nunc) coated with 100 μl per well 100 μg/ml gum arabic in 50 mM carbonate pH9.6. Plates were coated at 4° C. overnight and coating was continued at room temperature for 1 hour on the next day. Plates were washed three times with PBS/0.05%-TWEEN®-20 and blocked with 5% skimmed milk in PBS for 1 hour. Four-fold serial dilutions of purified VHH antibody fragments were prepared in 1% MPBS/0.05%-TWEEN®-20 in polypropylene 96-well plates. Antibody concentrations ranged from 3 μg/ml to 12 ng/ml. Antibody dilutions were transferred to the gum arabic-coated plates and VHH antibody fragments were allowed to bind for 1 hour at room temperature. Bound VHH were detected with sequential incubations with monoclonal mouse anti-histidine antibodies (Abd Serotec) and rabbit anti-mouse IgG whole molecule antibodies conjugated with alkaline phosphatase (RaM/AP) (Sigma) in 1% MPBS/0.05%-TWEEN®-20. Unbound antibodies were removed by washing three times with PBS/0.05%-TWEEN®-20 after each antibody incubation. The plates were washed an additional two times with PBS and 100 μl pNPP disodium hexahydrate substrate (Sigma) was added to each well. The absorbance at 405 nm was measured and plotted as function of antibody concentration (see Table 1).

potato leaf discs = test: VHH binding at different pH; parameters: species or system potato (variety Désirée); settings: 5 μg/ml; whole range tested from pH 2 to pH 11
Description: In order to test applicability of VHH as binders for greenhouse or field applications where binding supposedly may occur at pH-values, deviating strongly from physiological conditions in which antibodies naturally bind their targets, a leaf dip VHH binding experiment was carried out in a series of solutions with different pH. The following solutions were prepared: 50 mM glycine pH 2.0, 50 mM sodium acetate pH 4.0, 50 mm sodium carbonate pH 9.6, and 10 mM sodium hydroxide pH 11.0. ø 8 mm potato leaf discs (variety Désirée) were cut using a puncher tool. The leaf discs were first equilibrated to the different pH by washing three times with solutions at different pH. Hexahistidine-tagged VHH were diluted to 5 μg/ml in solutions with different pH, added to the corresponding equilibrated leaf discs, and binding of VHH was allowed for 1 hour. After incubation with VHH, leaf discs were washed three times with solutions at the corresponding different pH. After that, all were washed two times with PBS to equilibrate leaf discs to PBS. Bound VHH were detected by incubation with monoclonal mouse anti-histidine antibodies directly conjugated with Alexa-488 fluorescent dye (Abd Serotec) in PBS for 1 hour. Unbound anti-histidine antibodies were removed by washing five times with PBS. Leaf discs were analyzed for bound VHH with microscopy.

potato lectin [6] = target: T2, potato lectin (Solanum tuberosum, UniProt Q9S8M0); test: ELISA-like assay of VHH-coupled microcapsules on antigen-coated wells; settings: microcapsule binding assays
T2 sequence (Q9S8M0 23-323): T1 sequence (looked up)
Description: An ELISA-like assay setup was used to evaluate the interaction of VHH-coupled microcapsules to antigen-containing surfaces. ELISA plates (Maxisorp (Thermo Scientific Nunc) or high bind half area microplates (Greiner Bio-One)) were coated with gum arabic or potato lectin. Coatings were performed overnight with 100 μg/ml gum arabic or potato lectin in PBS. Control wells included blank wells or wells coated with unrelated antigens. Plates were washed three times with PBS with 0.05%-TWEEN®-20 and blocked with 5% skimmed milk in PBS for 1 to 2 hours. VHH-coupled lambda cyhalothrin-containing or Uvitex-containing microcapsules were diluted to appropriate densities in 1% skimmed milk in PBS with 0.05%-TWEEN®-20. Microcapsules were added to the antigen-coated or control wells and allowed to bind for 1 hour. Unbound microcapsules were removed by washing five times with PBS with 0.05%-TWEEN®-20. The bottoms of ELISA plate wells were analyzed for bound microcapsules on a macrozoom microscope system (Nikon). Microcapsules were counted using Volocity image analysis software (Perkin Elmer). A DAPI filter was used to visualize Uvitex microcapsules. White LED illumination and bright field pictures were used for lambda cyhalothrin microcapsules. Controls for lambda cyhalothrin-containing or Uvitex-containing microcapsules included blank microcapsules and microcapsules to which unrelated VHH were coupled.

potato lectin [7] = target: T2, potato lectin; test: VHH binding to potato lectin in ELISA; settings: blank wells; VHH 3 μg/ml
Description: ELISA plates (Maxisorp, Nunc) coated with 100 μl per well 100 μg/ml potato lectin (Sigma) in PBS were coated at 4° C. overnight and coating was continued at room temperature for 1 hour on the next day. Plates were washed three times with PBS/0.05%-TWEEN®-20 and blocked with 5% skimmed milk in PBS for 1 hour. VHH (3 μg/ml) were transferred to the potato lectin-coated plates and VHH antibody fragments were allowed to bind for 1 hour at room temperature. Bound VHH were detected with sequential incubations with monoclonal mouse anti-histidine antibodies (Abd Serotec) and rabbit anti-mouse IgG whole molecule antibodies conjugated with alkaline phosphatase (RaM/AP) (Sigma) in 1% MPBS/0.05%-TWEEN®-20. Unbound antibodies were removed by washing three times with PBS/0.05%-TWEEN®-20 after each antibody incubation. The plates were washed an additional two times with PBS and 100 μl pNPP disodium hexahydrate substrate (Sigma) was added to each well and the absorbance at 405 nm was measured (see Table 2).

## Control VHH
Potato lectin (Sigma) [1]
  microcapsule counts (microcapsules): 36
Potato lectin (Sigma) [2]
  microcapsule counts (microcapsules): 125
Potato lectin (Sigma) [3]
  microcapsule counts (microcapsules): 116

B1: VHH 3E6 (VHH)
VHH: QVQLQESGGGLVQPGGTLSLSCAASGFNVRWYGMGWFRQAPGKEREGVACISALQETTAYADSVKGRFTLSRDNPKNTLSLQMNNLQPEDTGVYYCATTDCDDSSRMTYTSYLGQGTQVTVSS
notes: also called Monovalent VHH 3E6
Unrelated antigens [4]
  counts of bound microcapsules (microcapsules): 861
Unrelated antigens [5]
  area of bound microcapsules: 47.9
Gum arabic; Table 2, gum arabic coat, VHH 3 μg/ml
  absorbance at 405 nm: 0.882
Gum arabic; [VHH] 0.0117188 μg/ml (0.78125 nM), gum arabic 100 μg/ml
  absorbance at 405 nm: 0.392
Gum arabic; [VHH] 0.04688 μg/ml (3.125 nM), gum arabic 100 μg/ml
  absorbance at 405 nm: 0.905
Gum arabic; [VHH] 0.1875 μg/ml (12.5 nM), gum arabic 100 μg/ml
  absorbance at 405 nm: 1.518
Gum arabic; [VHH] 0.75 μg/ml (50 nM), gum arabic 100 μg/ml
  absorbance at 405 nm: 1.904
Gum arabic; [VHH] 3 μg/ml (200 nM), gum arabic 100 μg/ml
  absorbance at 405 nm: 2.154
Gum arabic; [VHH] 3 μg/ml (200 nM), no gum arabic coat (−)
  absorbance at 405 nm: 0.090
Potato leaf discs
  binding to leaf discs at different pH: showed detectable binding
Potato lectin [6]
  binding to antigen-coated surfaces when coupled to a microcapsule: capable of binding specifically to antigen-coated surfaces
  binding to surfaces with unrelated antigens when coupled to a microcapsule: No significant binding
Potato lectin [7]
  absorbance at 405 nm: 0.067
